{
  "source": "patent US20170158777A1",
  "about": "(ORUM THERAPEUTICS, published 2017)",
  "biological_target": "T1, integrin ανβ3 on K562 integrin ανβ3-overexpressing cells (UniProt P06756 31-1048; P05106 27-788)",
  "T1 construct": "whole, on cells; Heterodimer overexpressed on K562 cells; Parental K562 cells served as the comparison; also called K562 integrin ανβ3 cells",
  "assay": "FACS on K562 integrin ανβ3-overexpressing cells, 100 nM antibody with 300 IU/ml heparin",
  "method": "Specifically, each of a K562 cell line and a K562 integrin ανβ3-overexpressing cell line was added to 1.5 ml at a density of 2×10⁵ cells, then washed twice with washing buffer (pH 7.4 PBS, 2% FBS). […] The cells were washed twice with washing buffer, and then stained with an Alexa488 (green fluorescence)-labeled antibody (Invitrogen) that specifically recognizes human IgG, at 4° for 1 hour. Next, the cells were washed twice with washing buffer, and analyzed by FACS.",
  "data": [
    {"binder": "RGD10 peptide-fused anti-Ras•GTP iMab RT11 (antibody, V domains shown, also called RGD10-RT11; RGD10 peptide-fused RT11) VH: EVQLVESGGGLVQPGGSLRLSCAASGFTFSSYSMSWVRQAPGKGLEWVSYISRTSHTTYYADSVKGRFTISRDNSKNTLYLQMNSLRAEDTAVYYCARGFFMDYWGQGTLVTVSS VL: DLVMTQSPSSLSASVGDRVTITCKSSQSLFNSRTRKNYLAWYQQKPGKAPKLLIYWASTRESGVPSRFSGSGSGTDFTLTISSLQPEDFATYYCQQYYYHMYTFGQGTKVEIKR", "values": [
      {"measurement": "binding result", "result": "binds"}
    ]}
  ]
}
